Test results: the supplement of paper PMC7877785
± gives the uncertainty stated by the source.

Test: self-splicing fitness, log relative to wild type (ln ratio); higher = more splicing; Tetrahymena group I intron in knt gene, E. coli kanamycin selection, DiMSum; sequences stand for … in CUCUCU…GGAGGGAAAAGUUAUCAGGCAUGCACCUGGUAGCUAGUCUUUAAACCAAUAGAUUGCAUCGGUUUAAAAGGCAAGACCGUCAAAUUGCGGGAAAGGGGUCAACAGCCGUUCAGUACCAAGUCUCAGGGGAAACUUUGAGAUGGCCUUGCAAAGGGUAUGGUAAUAAGCUGACGGACAUGGUCCUAACCACGCAGCCAAGUCCUAAGUCAACAGAUCUUCUGUUGAUAUGGAUGCAGUUCACAGACUAAAUGUCGGUCGGGGAAGAUGUAUUCUUCUCAUAAGAUAUAGUCGGACCUCUCCUUAAUGGGAGCUAGCGGAUGAAGUGAUGCAACACUGGAGCCGCUGGGAACUAAUUUGUAUGCGAAAGUAUAUUGAUUAGUUUUGGAGUACUCGUGGUCG
How it was run: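 Library with all eight P1ex-region intron nucleotides randomised, intron inside the knt kanamycin-resistance gene on pET-22b(+), in E. coli BL21(DE3). Cells grew overnight at 37°C or 30°C on LB agar with or without 25 μg/mL kanamycin (plus 100 μg/mL carbenicillin, 50 μM IPTG, 0.2% rhamnose), in six replicate transformations. Pooled colonies were amplicon-sequenced on Illumina HiSeq 2500. DiMSum fitness is the error-weighted combination of wild-type-normalised replicate fold changes, kanamycin versus none.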

| Sequence | self-splicing fitness (ln) (30 °C) | self-splicing fitness (ln) (37 °C) |
| --- | --- | --- |
| CUCCAGCAAUAUUACGGCAC | -3.68 ± 0.23 | -3.27 ± 0.47 |
| CUCCAGCAAUAUUACGGCGA | -2.16 ± 0.22 | -1.6 ± 0.2 |
| CUCCAGCAAUAUUACGGUCG | -0.742 ± 0.054 | -0.679 ± 0.071 |
| CUCCAGCAAUAUUACGUCCG | -2.63 ± 0.11 | -1.73 ± 0.12 |
| CUCCAGCAAUAUUACGUGAC | -3.38 ± 0.15 | -2.98 ± 0.3 |
| CUCCAGCAAUAUUACGUGCC | -3.68 ± 0.33 | -0.249 ± 0.27 |
| CUCGAGCAAUAUUACGAAAU | -3.36 ± 0.42 | -2.38 ± 0.27 |
| CUCGAGCAAUAUUACGAAGU | -3.64 ± 0.43 | -1.84 ± 0.35 |
| CUCGAGCAAUAUUACGACGA | -2.5 ± 0.24 | -1.26 ± 0.29 |
| CUCGAGCAAUAUUACGACUG | -1.28 ± 0.1 | -0.299 ± 0.15 |
| CUCGAGCAAUAUUACGAGCC |  | -1.68 ± 0.2 |
| CUCGAGCAAUAUUACGAGCU | -3.85 ± 0.32 |  |
| CUCGAGCAAUAUUACGAGUA | -2.77 ± 0.24 | -2.75 ± 0.31 |
| CUCGAGCAAUAUUACGAGUC | -3.52 ± 0.32 | -2.53 ± 0.2 |
| CUCGAGCAAUAUUACGCAGU | -2.06 ± 0.12 | -2.83 ± 0.25 |
| CUCGAGCAAUAUUACGCCUA |  | -0.858 ± 0.46 |
| CUCGAGCAAUAUUACGCGCG | -2.81 ± 0.27 | -1.48 ± 0.32 |
| CUCGAGCAAUAUUACGCGGC | -3.35 ± 0.47 | -3.16 ± 0.4 |
| CUCGAGCAAUAUUACGCGGU | -4.23 ± 0.46 | -1.97 ± 0.27 |
| CUCGAGCAAUAUUACGCUAC | -0.697 ± 0.2 |  |
| CUCGAGCAAUAUUACGCUGU |  | -2.66 ± 0.44 |

| Sequence | self-splicing fitness (ln) (30 °C) | self-splicing fitness (ln) (37 °C) |
| --- | --- | --- |
| CUCGAGCAAUAUUACGGACU | -2.35 ± 0.19 | -1.95 ± 0.26 |
| CUCGAGCAAUAUUACGGCGA | -3.88 ± 0.46 | -2.61 ± 0.36 |
| CUCGAGCAAUAUUACGGCUG | -3.82 ± 0.42 | -1.94 ± 0.29 |
| CUCGAGCAAUAUUACGUAAA | -3.8 ± 0.34 |  |
| CUCGAGCAAUAUUACGUAGG | -1.11 ± 0.11 | -0.804 ± 0.15 |
| CUCGAGCAAUAUUACGUAGU | -3.91 ± 0.26 | -2.18 ± 0.21 |
| CUCGAGCAAUAUUACGUGUA | -2.89 ± 0.12 | -3.35 ± 0.22 |
| CUCUAGCAAUAUUACGACCU | -2.94 ± 0.3 |  |
| CUCUAGCAAUAUUACGAGGA | -2.32 ± 0.19 | -1.59 ± 0.17 |
| CUCUAGCAAUAUUACGAGUG | -1.62 ± 0.14 | -1.09 ± 0.15 |
| CUCUAGCAAUAUUACGCAGG | -3.35 ± 0.26 | -3.04 ± 0.47 |
| CUCUAGCAAUAUUACGCAUC |  | -2.64 ± 0.36 |
| CUCUAGCAAUAUUACGCCGG | -2.98 ± 0.31 | -1.92 ± 0.45 |
| CUCUAGCAAUAUUACGCGGU | -3.25 ± 0.26 | -2.59 ± 0.29 |
| CUCUAGCAAUAUUACGCGUA | -4.1 ± 0.27 | -3.32 ± 0.24 |
| CUCUAGCAAUAUUACGCGUG | -3.84 ± 0.22 | -3.01 ± 0.19 |
| CUCUAGCAAUAUUACGCUAA | -2.65 ± 0.35 | -2.26 ± 0.4 |
| CUCUAGCAAUAUUACGCUCG | -3.05 ± 0.25 | -1.68 ± 0.23 |
| CUCUAGCAAUAUUACGGAUA | -3.57 ± 0.24 | -2.71 ± 0.22 |
| CUCUAGCAAUAUUACGGGAC | -2.77 ± 0.19 | -3.65 ± 0.46 |
| CUCUAGCAAUAUUACGGGUC | -5.03 ± 0.34 | -2.21 ± 0.18 |

| Sequence | self-splicing fitness (ln) (30 °C) | self-splicing fitness (ln) (37 °C) |
| --- | --- | --- |
| CUCUAGCAAUAUUACGGUAA | -2.38 ± 0.24 | -2.14 ± 0.21 |
| CUCUAGCAAUAUUACGUACG | -2.5 ± 0.23 | -1.4 ± 0.17 |
| CUCUAGCAAUAUUACGUCGA | -4.25 ± 0.42 | -0.879 ± 0.19 |
| CUCUAGCAAUAUUACGUCGG | -3.22 ± 0.22 | -1.57 ± 0.18 |
| CUCUAGCAAUAUUACGUGCA | -2.34 ± 0.43 |  |
| CUGAAGCAAUAUUACGAAAU | -3.78 ± 0.27 | -2.38 ± 0.25 |
| CUGAAGCAAUAUUACGACCC | -2.58 ± 0.38 |  |
| CUGAAGCAAUAUUACGAGAU | -2.63 ± 0.15 | -1.57 ± 0.15 |
| CUGAAGCAAUAUUACGAGCA | -3.59 ± 0.19 | -2.01 ± 0.2 |
| CUGAAGCAAUAUUACGAGGU | -3.28 ± 0.11 | -2.41 ± 0.17 |
| CUGAAGCAAUAUUACGAUGG | -0.0919 ± 0.065 | 0.123 ± 0.095 |
| CUGAAGCAAUAUUACGCAAG | -0.812 ± 0.12 | 0.142 ± 0.18 |
| CUGAAGCAAUAUUACGCACC | -2.27 ± 0.34 |  |
| CUGAAGCAAUAUUACGCGGA | -3.45 ± 0.16 | -1.7 ± 0.2 |
| CUGAAGCAAUAUUACGCGUA | -4.36 ± 0.36 | -1.98 ± 0.26 |
| CUGAAGCAAUAUUACGCUCG | -0.21 ± 0.086 | -0.613 ± 0.087 |
| CUGAAGCAAUAUUACGCUUG | -2.33 ± 0.13 | -1.79 ± 0.14 |
| CUGAAGCAAUAUUACGGUAC | -2.82 ± 0.18 | -2.71 ± 0.26 |
| CUGAAGCAAUAUUACGGUCU | -4.07 ± 0.36 | -2.24 ± 0.27 |
| CUGAAGCAAUAUUACGGUGU | -3.3 ± 0.1 | -2.95 ± 0.12 |
| CUGAAGCAAUAUUACGUAAG | -0.797 ± 0.08 | 0.0174 ± 0.086 |

| Sequence | self-splicing fitness (ln) (30 °C) | self-splicing fitness (ln) (37 °C) |
| --- | --- | --- |
| CUGAAGCAAUAUUACGUAUU | -3.86 ± 0.22 | -2.85 ± 0.3 |
| CUGAAGCAAUAUUACGUGAG | -0.269 ± 0.044 | 0.305 ± 0.065 |
| CUGAAGCAAUAUUACGUGCC |  | -1.64 ± 0.49 |
| CUGAAGCAAUAUUACGUUUA | -3.97 ± 0.24 |  |
| CUGAAGCAAUAUUACGUUUC | -2.72 ± 0.41 |  |
| CUGCAGCAAUAUUACGACAC | -3.35 ± 0.23 | -3.61 ± 0.33 |
| CUGCAGCAAUAUUACGACUC | -3.27 ± 0.26 | -1.98 ± 0.27 |
| CUGCAGCAAUAUUACGACUU | -2.66 ± 0.14 | -2.25 ± 0.17 |
| CUGCAGCAAUAUUACGAUAG | -1.16 ± 0.11 | -0.167 ± 0.12 |
| CUGCAGCAAUAUUACGCCGA |  | -2.61 ± 0.36 |
| CUGCAGCAAUAUUACGCCGC |  | -2.23 ± 0.45 |
| CUGCAGCAAUAUUACGCGCA | -3.37 ± 0.15 | -2.13 ± 0.15 |
| CUGCAGCAAUAUUACGCGGA | -2.29 ± 0.21 | -2.21 ± 0.31 |
| CUGCAGCAAUAUUACGCUGG | -3.66 ± 0.23 | -2.64 ± 0.25 |
| CUGCAGCAAUAUUACGGACA |  | -1.44 ± 0.28 |
| CUGCAGCAAUAUUACGGACG | -0.355 ± 0.14 | 0.179 ± 0.15 |
| CUGCAGCAAUAUUACGGAUG | -1.16 ± 0.061 | -0.415 ± 0.081 |
| CUGCAGCAAUAUUACGGCCU | -3.23 ± 0.17 | -1.56 ± 0.15 |
